# Reference: US20240321457A1 (University of California, published 2024)
# T1: UBE2N (human, UniProt P61088 1-152)
# T1 construct: endogenous prey from cell lysate; also called UBC13
# T1 sequence (looked up): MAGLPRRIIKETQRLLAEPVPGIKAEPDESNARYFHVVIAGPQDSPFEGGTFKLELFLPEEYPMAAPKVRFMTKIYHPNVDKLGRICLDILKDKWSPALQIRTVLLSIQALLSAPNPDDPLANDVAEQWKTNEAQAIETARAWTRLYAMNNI
# Biological target: T1, UBE2N
# Test: AP-MS, PPI score from compPASS and SAINTexpress, MDA-MB-231 cells
# Procedure: For AP-MS experiments, samples were resuspended in 15 μL of MS loading buffer (4% formic acid, 2% acetonitrile) and 2 μL were separated by a reversed-phase gradient over a nanoflow 75 μm ID×25 cm long picotip column packed with 1.9 μM C18 particles (Dr. Maisch). Peptides were directly injected over the course of a 75 min acquisition into a Q-Exactive Plus mass spectrometer (Thermo), or over the course of a 90 min acquisition into a Orbitrap Elite mass spectrometer. […] Peptides and proteins were filtered to 1% false discovery rate in MaxQuant, and identified proteins were then subjected to protein-protein interaction scoring.
# All PPI scoring was performed separately for each cell line. For SAINTexpress, control samples in which bait protein was not induced by addition of doxycycline were used. For CompPASS, a stats table representing all WT baits was used. After scoring, the CompPASS WD and Z-score were normalized within a given bait for each cell line. The total list of candidate PPIs was filtered to those that met the following criteria: SAINTexpress BFDR=<0.05, WD percentile by bait>=0.95, and Z-score percentile by bait≤=0.95. PPIs passing all 3 of these criteria were considered to be high-confidence PPIs. To enable visualization and analysis of PPIs by confidence score among these 3 criteria, a PPI score was calculated: [(WD percentile by bait+Z-score percentile by bait)/2)+(1−BFDR)]/2.
row,PPI score,Binder
1,< 0.6,"BRCA1 C61G (enzyme, human, UniProt P38398 1-1863, looked up, 3xFLAG-tagged bait; also called RING domain mutant C61G) MDLSALRVEEVQNVINAMQKILECPICLELIKEPVSTKCDHIFCKFCMLKLLNQKKGPSQGPLCKNDITKRSLQESTRFSQLVEELLKIICAFQLDTGLEYANSYNFAKKENNSPEHLKDEVSIIQSMGYRNRAKRLLQSEPENPSLQETSLSVQLSNLGTVRTLRTKQRIQPQKTSVYIELGSDSSEDTVNKATYCSVGDQELLQITPQGTRDEISLDSAKKAACEFSETDVTNTEHHQPSNNDLNTTEKRAAERHPEKYQGSSVSNLHVEPCGTNTHASSLQHENSSLLLTKDRMNVEKAEFCNKSKQPGLARSQHNRWAGSKETCNDRRTPSTEKKVDLNADPLCERKEWNKQKLPCSENPRDTEDVPWITLNSSIQKVNEWFSRSDELLGSDDSHDGESESNAKVADVLDVLNEVDEYSGSSEKIDLLASDPHEALICKSERVHSKSVESNIEDKIFGKTYRKKASLPNLSHVTENLIIGAFVTEPQIIQERPLTNKLKRKRRPTSGLHPEDFIKKADLAVQKTPEMINQGTNQTEQNGQVMNITNSGHENKTKGDSIQNEKNPNPIESLEKESAFKTKAEPISSSISNMELELNIHNSKAPKKNRLRRKSSTRHIHALELVVSRNLSPPNCTELQIDSCSSSEEIKKKKYNQMPVRHSRNLQLMEGKEPATGAKKSNKPNEQTSKRHDSDTFPELKLTNAPGSFTKCSNTSELKEFVNPSLPREEKEEKLETVKVSNNAEDPKDLMLSGERVLQTERSVESSSISLVPGTDYGTQESISLLEVSTLGKAKTEPNKCVSQCAAFENPKGLIHGCSKDNRNDTEGFKYPLGHEVNHSRETSIEMEESELDAQYLQNTFKVSKRQSFAPFSNPGNAEEECATFSAHSGSLKKQSPKVTFECEQKEENQGKNESNIKPVQTVNITAGFPVVGQKDKPVDNAKCSIKGGSRFCLSSQFRGNETGLITPNKHGLLQNPYRIPPLFPIKSFVKTKCKKNLLEENFEEHSMSPEREMGNENIPSTVSTISRNNIRENVFKEASSSNINEVGSSTNEVGSSINEIGSSDENIQAELGRNRGPKLNAMLRLGVLQPEVYKQSLPGSNCKHPEIKKQEYEEVVQTVNTDFSPYLISDNLEQPMGSSHASQVCSETPDDLLDDGEIKEDTSFAENDIKESSAVFSKSVQKGELSRSPSPFTHTHLAQGYRRGAKKLESSEENLSSEDEELPCFQHLLFGKVNNIPSQSTRHSTVATECLSKNTEENLLSLKNSLNDCSNQVILAKASQEHHLSEETKCSASLFSSQCSELEDLTANTNTQDPFLIGSSKQMRHQSESQGVGLSDKELVSDDEERGTGLEENNQEEQSMDSNLGEAASGCESETSVSEDCSGLSSQSDILTTQQRDTMQHNLIKLQQEMAELEAVLEQHGSQPSNSYPSIISDSSALEDLRNPEQSTSEKAVLTSQKSSEYPISQNPEGLSADKFEVSADSSTSKNKEPGVERSSPSKCPSLDDRWYMHSCSGSLQNRNYPSQEELIKVVDVEEQQLEESGPHDLTETSYLPRQDLEGTPYLESGISLFSDDPESDPSEDRAPESARVGNIPSSTSALKVPQLKVAESAQSPAAAHTTDTAGYNAMEESVSREKPELTASTERVNKRMSMVVSGLTPEEFMLVYKFARKHHITLTNLITEETTHVVMKTDAEFVCERTLKYFLGIAGGKWVVSYFWVTQSIKERKMLNEHDFEVRGDVVNGRNHQGPKRARESQDRKIFRGLEICCYGPFTNMPTDQLEWMVQLCGASVVKELSSFTLGTGVHPIVVVQPDAWTEDNGFHAIGQMCEAPVVTREWVLDSVALYQCQELDTYLIPQIPHSHY"
2,< 0.6,"BRCA1 M1775R (enzyme, human, UniProt P38398 1-1863, looked up, 3xFLAG-tagged bait; also called BRCT domain mutant M1775R) MDLSALRVEEVQNVINAMQKILECPICLELIKEPVSTKCDHIFCKFCMLKLLNQKKGPSQCPLCKNDITKRSLQESTRFSQLVEELLKIICAFQLDTGLEYANSYNFAKKENNSPEHLKDEVSIIQSMGYRNRAKRLLQSEPENPSLQETSLSVQLSNLGTVRTLRTKQRIQPQKTSVYIELGSDSSEDTVNKATYCSVGDQELLQITPQGTRDEISLDSAKKAACEFSETDVTNTEHHQPSNNDLNTTEKRAAERHPEKYQGSSVSNLHVEPCGTNTHASSLQHENSSLLLTKDRMNVEKAEFCNKSKQPGLARSQHNRWAGSKETCNDRRTPSTEKKVDLNADPLCERKEWNKQKLPCSENPRDTEDVPWITLNSSIQKVNEWFSRSDELLGSDDSHDGESESNAKVADVLDVLNEVDEYSGSSEKIDLLASDPHEALICKSERVHSKSVESNIEDKIFGKTYRKKASLPNLSHVTENLIIGAFVTEPQIIQERPLTNKLKRKRRPTSGLHPEDFIKKADLAVQKTPEMINQGTNQTEQNGQVMNITNSGHENKTKGDSIQNEKNPNPIESLEKESAFKTKAEPISSSISNMELELNIHNSKAPKKNRLRRKSSTRHIHALELVVSRNLSPPNCTELQIDSCSSSEEIKKKKYNQMPVRHSRNLQLMEGKEPATGAKKSNKPNEQTSKRHDSDTFPELKLTNAPGSFTKCSNTSELKEFVNPSLPREEKEEKLETVKVSNNAEDPKDLMLSGERVLQTERSVESSSISLVPGTDYGTQESISLLEVSTLGKAKTEPNKCVSQCAAFENPKGLIHGCSKDNRNDTEGFKYPLGHEVNHSRETSIEMEESELDAQYLQNTFKVSKRQSFAPFSNPGNAEEECATFSAHSGSLKKQSPKVTFECEQKEENQGKNESNIKPVQTVNITAGFPVVGQKDKPVDNAKCSIKGGSRFCLSSQFRGNETGLITPNKHGLLQNPYRIPPLFPIKSFVKTKCKKNLLEENFEEHSMSPEREMGNENIPSTVSTISRNNIRENVFKEASSSNINEVGSSTNEVGSSINEIGSSDENIQAELGRNRGPKLNAMLRLGVLQPEVYKQSLPGSNCKHPEIKKQEYEEVVQTVNTDFSPYLISDNLEQPMGSSHASQVCSETPDDLLDDGEIKEDTSFAENDIKESSAVFSKSVQKGELSRSPSPFTHTHLAQGYRRGAKKLESSEENLSSEDEELPCFQHLLFGKVNNIPSQSTRHSTVATECLSKNTEENLLSLKNSLNDCSNQVILAKASQEHHLSEETKCSASLFSSQCSELEDLTANTNTQDPFLIGSSKQMRHQSESQGVGLSDKELVSDDEERGTGLEENNQEEQSMDSNLGEAASGCESETSVSEDCSGLSSQSDILTTQQRDTMQHNLIKLQQEMAELEAVLEQHGSQPSNSYPSIISDSSALEDLRNPEQSTSEKAVLTSQKSSEYPISQNPEGLSADKFEVSADSSTSKNKEPGVERSSPSKCPSLDDRWYMHSCSGSLQNRNYPSQEELIKVVDVEEQQLEESGPHDLTETSYLPRQDLEGTPYLESGISLFSDDPESDPSEDRAPESARVGNIPSSTSALKVPQLKVAESAQSPAAAHTTDTAGYNAMEESVSREKPELTASTERVNKRMSMVVSGLTPEEFMLVYKFARKHHITLTNLITEETTHVVMKTDAEFVCERTLKYFLGIAGGKWVVSYFWVTQSIKERKMLNEHDFEVRGDVVNGRNHQGPKRARESQDRKIFRGLEICCYGPFTNRPTDQLEWMVQLCGASVVKELSSFTLGTGVHPIVVVQPDAWTEDNGFHAIGQMCEAPVVTREWVLDSVALYQCQELDTYLIPQIPHSHY"
